Patent US20180292412A1 (JULIUS MAXIMILIANS UNIVERSIT T W RZBURG, published 2018)
Changes are numbered by the printed parent chain.

How the values were obtained:
[1] = biological target: T1, recombinant mature human GDF-15 protein (as expressed in Baculovirus-transfected HighFive insect cells) (human, UniProt Q99988 197-308); assay: SPR (Biorad ProteOn XPR36, GLC chip), GDF-15 from insect cells immobilised, antibody as analyte, 25° C., 1:1 Langmuir model
T1 construct: Immobilised by amine coupling on the SPR chip; also called recombinant human GDF-15; GDF-15 derived from insect cell expression
T1 sequence: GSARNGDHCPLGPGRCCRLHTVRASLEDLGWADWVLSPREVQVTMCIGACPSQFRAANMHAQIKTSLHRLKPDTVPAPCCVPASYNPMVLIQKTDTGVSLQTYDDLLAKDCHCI
From the text: (§1) For preparing the biosensors recombinant mature human GDF-15 protein was immobilized on flow cells 1 and 2. On one flow cell recombinant GDF-15 derived from Baculvirus-transfected insect cells (HighFive insect cells) and on the other recombinant protein derived from expression in E. coli was used. The GLC sensor chip was activated using Sulfo-NHS (N-Hydroxysulfosuccinimide) and EDC (1-Ethyl-3-[3-dimethylaminopropyl]carbodiimide hydrochloride) (Biorad ProteOn Amine Coupling Kit) according to the manufacturer's recommendation, the sensor surface was subsequently loaded with the proteins up to a density of about 600 RU (1 Ru=1 pg mm⁻²). The non-reacted coupling groups were then quenched by perfusion with 1M ethanolamine pH 8.5 and the biosensor was equilibrated by perfusing the chip with running buffer ([…], 150 mM NaCl, 3.4 mM EDTA, 0.005% Tween-20, pH 7.4, referred to as HBS150). […] The resulting sensogram was analyzed using the software ProteOn Manager version 3.0. […] For the association rate constant a value of 5.4±0.06×10⁵ M⁻¹s⁻¹ (kₒₙ) and for the dissociation rate constant a value of 4.3±0.03×10⁻⁴ s⁻¹ (koff) could be determined (values are for the interaction of anti-human GDF-15 mAb-B1-23 with GDF-15 derived from insect cell expression).

[2] = biological target: T1, recombinant mature human GDF-15 protein …; assay: SPR (Biorad ProteOn XPR36), calculated as koff/kon
From the text: as §1

[3] = biological target: T2, recombinant mature human GDF-15 protein derived from expression in E. coli (human, UniProt Q99988 195-308); assay: SPR (Biorad ProteOn XPR36), GDF-15 from E. coli immobilised, antibody as analyte
T2 construct: mature; also called GDF-15 derived from E. coli expression
T2 sequence (looked up): T1 sequence with G1A, S2R
From the text: as §1, with “The” for “For preparing the biosensors recombinant mature human GDF-15 protein was immobilized on flow cells 1 and 2. On one flow cell recombinant GDF-15 derived from Baculvirus-transfected insect cells (HighFive insect cells) and on the other recombinant protein derived from expression in E. coli was used. The”, “HBS150). As controls two flow cells were used, one empty with no protein coupled and one coupled with an non-physiological protein partner (human Interleukin-5), which was immobilized using the same coupling chemistry and the same coupling density. For interaction measurements anti-human GDF-15 mAb-B1-23 was dissolved in HBS150 and used in six different concentrations as analyte (concentration: 0.4, 0.8, 3, 12, 49 und 98 nM).” for “HBS150).”

koff [1]: 0.00043 s⁻¹ | kon [1]: 540000 M⁻¹ s⁻¹ | Kd [2]: ~0.79 nM | fold difference of affinity against GDF-15 derived from insect cells [3]: < 2 fold
B1: monoclonal anti-human GDF-15 mAb-B1-23 (antibody, IgG2a, V domains shown, not shown: a dimerising Fc or GST)
VH: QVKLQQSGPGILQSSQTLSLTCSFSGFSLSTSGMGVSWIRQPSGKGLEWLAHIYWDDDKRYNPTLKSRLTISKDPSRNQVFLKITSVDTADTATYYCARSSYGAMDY
VL: DIVLTQSPKFMSTSVGDRVSVTCKASQNVGTNVAWFLQKPGQSPKALIYSASYRYSGVPDRFTGSGSGTDFTLTISNVQSEDLAEYFCQQYNNFPYT
notes: Mouse hybridoma antibody (DSM ACC3142), IgG2a, kappa chain; FR4 and the constant regions are missing; also called antibody B1-23; monoclonal mouse antibody GDF-15
